Measured values: patent US20060074222A1

Columns and labels:
[1] = biological target: Pin1 R14A (SEQ ID NO:2) (human) (UniProt Q13526); experiment: cell-based or functional assay
[2] = biological target: Pin1 (wild-type, SEQ ID NO:1) (human) (UniProt Q13526); experiment: cell-based or functional assay

An MALDI-TOF mass increase after PKA treatment [1] of 90 Daltons and an MALDI-TOF mass increase after PKA treatment [2] of 160 Daltons were found for phosphokinase A (PKA) (enzyme) in this work.
